This is an account of results in article PMC3228830, “Targeted Proteolysis of Plectin Isoform 1a Accounts for Hemidesmosome Dysfunction in Mice Mimicking the Dominant Skin Blistering Disease EBS-Ogna” (PLoS Genetics, 2011).

This data set deals with the molecule itself. Put plainly: SEC-MALS; Superose 6 10/300 GL column, 0.5 ml/min, protein 2 mg/ml, load 75 ul.

B1: His-tagged wild-type plectin rod domain (pNV10) (domain or fragment)
chain: IKFISETLRRMEEEERLAEQQRAEERERLAEVEAALEKQRQLAEAHAQAKAQAELEAQELQRRMQEEVARREEAAVDAQQQKRSIQEELQHLRQSSEAEIQAKAQQVEAAERSRMRIEEEIRVVRLQLETTERQRGGAEGELQALRARAEEAEAQKRQAQEEAERLRRQVQDESQRKRQAEAELALRVKAEAEAAREKQRALQALDELRLQAEEAERRLRQAEAERARQVQVALETAQRSAEVELQSKRASFAEKTAQLERTLQEEHVTVAQLREEAERRAQQQAEAERAREEAERELERWQLKANEALRLRLQAEEVAQQKSLAQADAEKQKEEAEREARRRGKAEEQAVRQRELAEQELEKQRQLAEGTAQQRLAAEQELIRLRAETEQGEQQRQLLEEELARLQHEATAATQKRQELEAELAKVRAEMEVLLASKARAEEESRSTSEKSKQRLEAEAGRFRELAEEAARLRALAEEAKRQRQLAEEDAARQRAEAERVLTEKLAAISEATRLKTEAEIALKEKEAENERLRRLAEDEAFQRRRLEEQAALHKADIEERLAQLRKASESELERQKGLVEDTLRQRRQVEEEIMALKVSFEKAAAGKAELELELGRIRSNAEDTMRSKEQAELEAARQRQLAAEEEQRRREAEERVQRSLAAEEEAARQRKVALEEVERLKAKVEEARRLRERAEQESARQLQLAQEAAQKRLQAEEKAHAFVVQQREEELQQTLQQEQNMLDRLRSEAEAARRAAEEAEEAREQAEREAAQSRKQVEEAERLKQSAEEQAQAQAQAQAAAEKLRKEAEQEAARRAQAEQAALKQKQAADAEMEKHKKFAEQTLRQKAQVEQELTTLRLQLEETDHQKSILDEELQRLKAEVTEAARQRSQVEEELFSVRVQMEELGKLKARIEAENRALILRDKDNTQRFLEEEAEKMKQVAEEAARLSVAAQEAARLRQLAEEDLAQQRALAEKMLKEKMQAVQEATRLKAEAELLQQQKELAQEQARRLQEDKEQMAQQLVEETQGFQRTLEAERQRQLEMSAEAERLKLRMAEMSRAQARAEEDAQRFRKQAEEIGEKLHRTELATQEKVTLVQTLEIQRQQSDHDAERLREAIAELEREKEKLKQEAKLLQLKSEEMQTVQQEQILQETQALQKSFLSEKDSLLQRERFIEQEKAKLEQLFQDEVAKAKQLREEQQRQQQQMEQEKQELMASMEEARRRQREAEEGVRRKQEELQHLEQQRQQQEKLLAEENQRLRERLQRLEEEHRAALAHSEIATT
Take B1: the “stoichiometry N” value came out at 2.
